Article PMC4838544 (Gene, 2016)

Molecular target: T1, E. coli topoisomerase I with a N-terminus 6x-His tag (E. coli, UniProt P06612 1-865)
T1 sequence (looked up): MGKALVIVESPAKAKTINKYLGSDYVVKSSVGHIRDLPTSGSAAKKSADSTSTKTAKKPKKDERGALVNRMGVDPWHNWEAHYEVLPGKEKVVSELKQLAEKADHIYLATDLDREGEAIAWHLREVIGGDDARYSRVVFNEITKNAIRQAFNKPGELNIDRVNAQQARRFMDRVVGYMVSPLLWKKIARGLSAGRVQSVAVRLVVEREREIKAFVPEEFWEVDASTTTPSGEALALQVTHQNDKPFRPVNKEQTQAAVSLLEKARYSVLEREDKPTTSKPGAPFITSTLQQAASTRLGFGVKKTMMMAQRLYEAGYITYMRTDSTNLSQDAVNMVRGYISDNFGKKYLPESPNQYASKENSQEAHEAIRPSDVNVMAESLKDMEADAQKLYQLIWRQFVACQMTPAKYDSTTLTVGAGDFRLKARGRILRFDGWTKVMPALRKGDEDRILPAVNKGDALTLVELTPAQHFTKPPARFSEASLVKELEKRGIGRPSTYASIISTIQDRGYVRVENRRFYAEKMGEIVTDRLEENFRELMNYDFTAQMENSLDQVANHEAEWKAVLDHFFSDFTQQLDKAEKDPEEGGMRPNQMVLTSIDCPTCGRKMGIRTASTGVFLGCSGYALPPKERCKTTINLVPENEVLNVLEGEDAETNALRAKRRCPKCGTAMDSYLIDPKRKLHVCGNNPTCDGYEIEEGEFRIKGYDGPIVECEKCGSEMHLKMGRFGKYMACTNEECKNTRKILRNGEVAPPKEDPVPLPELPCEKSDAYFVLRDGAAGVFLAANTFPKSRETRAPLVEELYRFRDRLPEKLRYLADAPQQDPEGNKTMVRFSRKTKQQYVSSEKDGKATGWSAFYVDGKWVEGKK
Test: pull-down

B1: Purified E. coli RecA (natural protein)
chain: AIDENKQKALAAALGQIEKQFGKGSIMRLGEDRSMDVETISTGSLSLDIALGAGGLPMGRIVEIYGPESSGKTTLTLQVIAAAQREGKTCAFIDAEHALDPIYARKLGVDIDNLLCSQPDTGEQALEICDALARSGAVDVIVVDSVAALTPKAEIEGEIGDSHMGLAARMMSQAMRKLAGNLKQSNTLLIFINQIRMKIGVMFGNPETTTGGNALKFYASVRLDIRRIGAVKEGENVVGSETRVKVVKNKIAAPFKQAEFQILYGEGINFYGELVDLGVKEKLIEKAGAWYSYKGEKIGQGKANATAWLKDNPETAKEIEKKVRELLLSNPNSTPDFSVDDSEGVAETNEDF
binding result: binds
